Assay: yeast display, Sf9 membrane polyspecificity reagent, FACS + sequencing; frameworks hold sequencing errors
Summary of the method: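 Nanobodies came from a synthetic yeast display library in Saccharomyces cerevisiae BJ5465, induced with galactose for 36–48 hours and stained for 1 hour at 4 °C with 10% biotinylated, detergent-solubilized Sf9 membrane reagent. Cells were enriched on streptavidin microbeads and then FACS-sorted, with low and high (top ~1%) gates set on anti-HA fluorescence for expression and streptavidin fluorescence for reagent binding. Each polyreactivity label reflects the gate a clone came from. Genes were amplified by colony PCR, sequenced by MiSeq 2 × 250 and filtered by CDR length.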

Row | Sequence | polyreactivity (PSR sort gate)
1 | QVQLVESGGGLVQAGGSIRLSCAASGFTFTRYTMGWYRQAPGKERELVARITRSGGSTYYADSVKGRFTISRDNAKNTVYLQMNSLKPEDTAVYDCAAGYVVATRYDYWGQGTQVTLSS | high polyreactivity
2 | QVQLVESGGGLVQARGSLRLSCAASGNIFYRYAMGWYRQATGKERELVAAISFSGGGTYYADSVKGRFTISRDNAKNTVYLQMNSLKPEDTAVYYCAAYRRGCYDYWGQGTQVTVSS | high polyreactivity
3 | QVQLVESGGGLVQSGGSLRLSCAASGFTFSWYAMGSYRQAPGKERELVAAISWDGDSTYYADSVKGRCTISRDNAKNTVFLQMNSLKPEETAVYYCAADFSYYWDGYDYWGQGSQVTVSS | high polyreactivity
4 | KDQLVESGGGLVQAGGSLRLSSAASGIRFYVHSMGWYRQAPGKERELDASITSSGGSTYYADSVKGRFTISRDKATNSVYLQMNSLKPEDTAVYYCNKERWPVTYREYDYWGQGTQVTVSS | low polyreactivity
5 | QVQLVESGGGLVQAGGSLRLSCAASGSIFIRYVMGWYRQAPGKERELVAAITGSGSRTYYADSVKGRFTISRDNAKNTVYLQMNSLKPEDTAVYYCAADWTKSRRYYWGQGTQVTVSS | high polyreactivity
6 | QVQLVESGGGLVQAGGSLRLSCAAYGLIFAISAMGWYRQAPGKERELVAAIRWSGASTYADSVKGRFTISRDNAKNTVYLQMNSLKTEDTAVYYCAADDLLHYDYWGQGTQVTVSS | low polyreactivity
7 | QVQLVESGGGLVQAGGSLRLSCAASGFTFGSYAMGWYRQAPGKERELVAAITYRGGSTYYADSVKGRFTISRDNAKNTVYLQMNSLKPEDTAVYYCAADSRRKGNYWGQGTQVTVSS | high polyreactivity
8 | QVQLVESGGGLVQAGGSLRLSCAASGSIFVVYAMGWYRQAPGKERELVAGISDGDNTNYADSVKGRFTISRDNAKNTVYLQMNSLKPEDTAVYYCNADGTSRNLEGFDYWGQGTQVTVSS | low polyreactivity
9 | QVQLVESGGGLVQAGGSLRLSCAASGRTFGKNAMGWYRQAPGKERELVAAISGSGGSTYYADSVKGRFTISRDNAKNTVSLQMNSLKPEDTADYYCAKSYYGKYYPSDYWGQGTQVTVSS | low polyreactivity
10 | QVQLVESGGGLVQAGGSLRLSCAASGNILWFNAMGWYRQAPGKERELVASISSSGGRTYYADSVKGRFTISRDNAKNTVYLQMNSLKPEDTAVYYCAAEYYYGWTYSGGLGFLGYNYWGQGTQVTVSS | low polyreactivity
11 | QVQLVESGGGLVQAGGSLRLSCAASGGTFLSNAMGWYRQAPGKERELVASISWGGGSTTYADSVKGRFTISRDNAKNTVYLQMNSLKPEDTAVYYCNALDGPGYYVDYDYWGQGTQVTVSS | low polyreactivity
12 | QVHLVESGGCLVQAGGSLRLSCAASGSIFGDYVMAWYRQAPGKERELVAAITRGGSTYYADSVKGRFTFSRDNAKNTVYLQMNSLKPEDTAVYYCAASYYFVQWGWYYYWGQGTQVTVSS | low polyreactivity
13 | QVQLVESGGGLVQAGGSLRLSCAASGFTFTYYTMGWYRQAPGKESELVAAISWSGGRTYYADSVKGRFTISRDNAKNTVYLQMNSLKPEDTAVYYCAAVYSSYYSSSYGYWGQGTQVTVSS | high polyreactivity
14 | QVQLVESGGGLVQAGGSLRLSCAASGRIFLWYAMGWYRQAPGKERELVAGISSGASTYYADSVKGRFTISRDNAKNTVYLQMNSLKPEDTAVYYCAAPYYRLTGWSRYDYWGQGTQVTVSS | high polyreactivity
15 | QVQLVESGGVLVQAGGSLRLSCAASGSIFGLYAMGWYRQAPGKERELVAAISRRSVSTYYADSVKGRFTISRDNAKNTVYLQMNSLKPEDTAVYYCAAVTYPYLRSQKGYDGYGYWGHGTQVTVSS | high polyreactivity
16 | QVQIVESGGGLVQAVGSLRLSCAASGFTFTYNAMGWYRQAPGKERELVAAISSGGRTYYADSVKGRFTISRDNAKNTVYLQMNSLKPEDTAVYYCNADPDQYTLRSITNDEDYWGQGTQVTVSS | low polyreactivity
17 | QVQLVESGGGLVQAGGSLRLSCAASGRTFAVNAMGWYRQAPGKESELVAAISQRAGRTYYADSVKGRFTISRDNAKNTVYLQMNSLKPEDTAVYYCNVVGFRSRVGSRGYWGQGTQVTVSS | high polyreactivity
18 | QVQLVESGGGLVQAGGSLRLICAASGFTFVRYTMGWYRQAPGKERELVAVIRRGGSTYYADSVKGRFTISRDNAKNTVYLQMNSLKPEDTAVYYCNALSALAVEDGYWGQGTQVTVSS | low polyreactivity
19 | QVQLVESGGGLLQAGGSLRLSCAASGRTSGRYAMGWYRQAPGKERELVAAISSGGRTSYADSVKGRFTISRDNAQNTVDLQMISLKPEDTAVYYCAAVFVLARAYNYWGQGTLVTVSS | high polyreactivity
20 | QVQLVESGGRLVQAGGSLRLSCAASGRTFQSYAMGWYRQAPGKERELVAAITITGGRTYYADSVKGRFTISRDNAKNTVYLQMNSLKPEDTAVYYCAAEEYSHYTLGYDYWGQGTQVTVSS | low polyreactivity
21 | QVQLVESGGGLVQAGGILRLSCAASGRIFGSYAMGWYRQAPGKERELVAVITKRGDSTYYADSVKGRFTISRDNAKNTVYLQMNSLKPEDTAVYYCNARVYPGYSFWAVFGYDYWGQGTQVTVSS | low polyreactivity

Row | Sequence | polyreactivity (PSR sort gate)
22 | QVQLVESGGGLVQAGGSLRLSCAASGSTFAEYAMGWYRQAPGKERELVAAIRWSGGSTSYADSVKGRFTMSRDNAKHTVYLQMNSLKPEDTAVYYCAAERFWYDGAVKLYVLSYYWGQGTQVTVSS | low polyreactivity
23 | QDKLVESGGGLVQAGGSLRLSCAPSGSIFYGYAMGWYRQAPGKESELVAAMSSTGGTTYYADSVKGRFTISRDNAKNTVYLQMNSQKPEDTAVYYCAKRGRTWRYPFDYWGQGTQVTVSS | high polyreactivity
24 | QVHLVESGGGLVLAGGSLRLSCAASVRIYTRNVMGWYRQAPGKERELVAAISTSGGSTFYADSVKGRFTISRDNAKNTVYLQMNSLKPEDTAVYYCAKRRYGKLEYWGQGTQVTVSS | high polyreactivity
25 | QVQLVESGGGLVQAGGSLGLSCAASGYSLGSYAMGWYRQAPGKERELVAAITSSGGSTYYADSVKGRFTSSRDYAKNTDYLQMNSLKPEDTAVYYCAAERGYHGGGSGLYDYWGQGTQVTVSS | low polyreactivity
26 | QVQLVESGGGLVQAGGSLRLSCAASGFIIGSYTMGWYRQAPGKERELVASITKRGGSTYYADSVKGRFTISRDNAKNTVYFQMNSLKPEDTAVYYCAATYWFSHRSRYDYWGQGTQVTVSS | high polyreactivity
27 | QVQLVESGGGLVQAGGSLRLSCAASGITFPQYAMGWYRQAPGKERELVAAITSGGSTNYADSVKGRFTISRDNGKNTVYLQMNSLKPEDTGVYYCNTAGYYWLHYTMDYWGQGTQVTVSS | high polyreactivity
28 | QVQLVESGGGLVQAGGSLRLSCAASGIIFGYNAMGWYRQAPGKERELVAAISYGGGRSYYADSVKGRFTISRDNAKNTVYFQMNSLKPEDTAVYYCAAQYFASRSYGYDYWGQGTQVTVSS | high polyreactivity
29 | QVQLVESGGGLVQAGGSLRLSCAASGFTFTYYAMGWYRQAPGNERELVAAISSGGNTYYADSVKGRFTISRDNAKNTVYLQMNSLKPEDTAVYYCAAQYSKRAWSWTYAYSYFRFDYWGQGTQVTVSS | low polyreactivity
30 | QVQLVESGGGLVQAGGSLRLSCAASGRTFYYNAMGWYRQAPGKEREFVAGISYGGTTTYYADSVKGRFTISRDNAKNTVYLQMNSLKPEDTAVYYCAAGYTWRQSWYPFDYWGQGTQVTVSS | high polyreactivity
31 | QVQLVESGGGLVQAGGSLRLSCAASGSIFSYNLMGWYRQAPGKERELVAAITRSCGSTYYADSVKGRFTISRDNAKNTVYLQMNSLKQEDTAVYYCAVGWADQDPFIMDFWGQGTQVTVSS | low polyreactivity
32 | QVQLVESGGGLVQAGGSLRLSCAASGRIFNDYAMGWSRQAPGKERELVAVIRRSGVSTYYADSVKGRFTISRDNAKNTVYLQMNSLKPEDTAVYYCAAYGYWGQGTQVTVSS | low polyreactivity
33 | QVQLVESGGGLVQAGGSLRLSCSASGFIFGTNTMGWYRQAPGKEWELVAAITSVGSTNYADSVKGRFTISRDNAKNTVYLQMNSLKPEDTAVYYCPATLYYQYGGDYWGQGTQVTVSS | low polyreactivity
34 | QVQLEESGGGLVQAGGSLRLSCAASGRTFDRYAMGWYRQAPGKERELVAAITWSGGRTYYADSVKGRFTISRVNAKNTVYLQMNSLKPEDTAVYYCAADNSYRGYHSPYDYWGQGTQVTVSS | low polyreactivity
35 | QVQLVESGGGLVQAGGSLRLSCGASGRTVGGNAMGWERPAPGQERELVAAITNSASTYADSVKGRFTISRDNAQNTVYLLMNSLKPEDTAGSYCAARTLPRVYRNTFGYWGQGTQVTVSS | low polyreactivity
36 | QVQLVESGGGLVQAGGSLRLSCAPSGRTFGYNAMGWYRQAPGKESELVAGISSSDASTYYADSVKGRFTISRDNAKNTVYLQMNSLKPEDTAVYYCAATFGFFYYQYDYWGQGTQVTVSS | low polyreactivity
37 | QVQLVESGGGLVQAGGSLRLSCAASGFTFGDYVMGWYRQAPGKERELVAAITTSGTRTSYADSVKGRFTISRDNAKNTVYLQMNSLKPEDTAVYYCAAEHTNYYYFWQAHYYWGQGTQVTVSS | high polyreactivity
38 | QVQLVESGGGLVQAGGSLRLSCAASGRTFYYYTMGWYRPAPGKERELVAAISSTGNTYYADSVKGRFTISRDNAKNTVYLQMNSLKPEDTAVYYCAALRYVNLLAQAYEYWGQGTQVTVSS | high polyreactivity
39 | QVQLVESGGGLVQAGGSLRLSCAASGSTFCDYAMGWYRQAPGKERELVAAISSGGSTNYADSVKGRFTISRDNAKNTVYLQMNSLKPEDTAVYYCAVGYGGYYYWGQGTQVTVSS | high polyreactivity
40 | QVQLQVSGGDLVQAGGSLRMSCAASGTIYGLTSMGWNRQAPGKEREFVAAITDGGNTNYADSVKGRFTISRDNAKNTVYLQMISLKPEDTAVFYCAVLFSDDAYYAYWGQGTQVNVSS | low polyreactivity
41 | QVQLLESGGGLVQAGRSLRLSCAASGRIFVYYAMGWYRQAPGQERELVATISWSGGSTYYADSVKGRFTISRDNAKNTVYLELNSLKPEDTAVYYCAAEKYISYYSVKRQENGYWGQGSQVTVSS | low polyreactivity
